Assay results reported in PMC11756378, “Centriolar cap proteins CP110 and CPAP control slow elongation of microtubule plus ends” (The Journal of Cell Biology, 2025).

Tests used:
[1] = molecular target: CEP97^CP110-GFP-SII (CEP97 residues 1–650 fused to CP110 residues 581–991) (human) (UniProt Q8IW35)
[2] = molecular target: T1, CPAP-CC1 (residues 89–196) (human, UniProt Q9HC77 89-196); experiment: cross-linking; zero-length cross-linking with 60 mM DMTMM, 6 min, 25°C, then mass spectrometry (xQuest); settings: both partners purified
T1 construct: Calculated mass of the monomer: 12.5 kDa; source: E. coli BL21(DE3), purified (Ni-NTA, tag cleaved with HRV 3C protease, SEC); not shown: thioredoxin, N-terminal, cleaved; His6, N-terminal, cleaved
T1 sequence (looked up): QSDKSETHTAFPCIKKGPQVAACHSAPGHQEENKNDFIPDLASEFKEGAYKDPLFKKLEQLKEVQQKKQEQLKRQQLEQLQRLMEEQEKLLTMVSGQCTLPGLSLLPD

[3] = molecular target: the molecule itself; experiment: SEC-MALS; 20°C, Superdex S75 10/30 or S200 10/30, 20 mM HEPES pH 7.5, 150 mM NaCl, 2 mM DTT; 15 µl at ∼7 mg/ml; proteins alone or mixed equimolar (also 2:1 and 3:1); homodimer for CP110-CC2
[4] = molecular target: the molecule itself; experiment: single-molecule fluorescence intensity (TIRF microscopy); single molecules immobilised on coverslips in MRB80; intensity compared with GFP (monomers) and GFP-EB3 (dimers)

Molecule: CPAP-NMUT-mCh (CPAP 1–607 L149A/K150A, GCN4 leucine zipper, mCherry, SII) (from UniProt Q9HC77 1-607)
- percentage of time CEP97^CP110-GFP was bound to MT plus ends, 20 nM CEP97^CP110-GFP with 50 nM CPAP-NMUT-mCh [1]: 26%

Molecule: CPAP-NWT-mCh (CPAP 1–607, GCN4 leucine zipper, mCherry, SII) (from UniProt Q9HC77 1-607)
- MT plus-end growth rate with 20 nM CEP97^CP110-GFP and 50 nM CPAP-NWT-mCh (TIRF reconstitution) [1]: 0.05 to 0.1 µm/min
- percentage of time CEP97^CP110 was present at MT plus ends, 20 nM CEP97^CP110-GFP with 50 nM CPAP-NWT-mCh [1]: 69%

B1: CP110-CC2 (residues 635–717) (domain or fragment, human, UniProt O43303-2 635-717, looked up)
chain: GTSSKESEELLKSKMLAFEEMRKRLEEQHAQQLSLLIAEQEREQERLQKEIEEQEKMLKEKKAMTAEASELDINNAVELEWRK
notes: CP110, human, residues 635-717 (coiled-coil domain CC2); Homodimer alone by SEC-MALS; one chain in the heterodimer with CPAP-CC1; Calculated mass of the monomer: 10.0 kDa; also called CP110 fragment 635–717; source: E. coli BL21(DE3), purified (Ni-NTA, tag cleaved with HRV 3C protease, SEC); not shown: thioredoxin, N-terminal, cleaved; His6, N-terminal, cleaved
- binding result [2]: binds
- stoichiometry N [3]: 2

B2: CEP97^CP110-GFP-SII (CEP97 residues 1–650 fused to CP110 residues 581–991) (other, human, UniProt Q8IW35 1-650, looked up)
chain: MAVARVDAALPPGEGSVVNWSGQGLQKLGPNLPCEADIHTLILDKNQIIKLENLEKCKRLIQLSVANNRLVRMMGVAKLTLLRVLNLPHNSIGCVEGLKELVHLEWLNLAGNNLKAMEQINSCTALQHLDLSDNNISQIGDLSKLVSLKTLLLHGNIITSLRMAPAYLPRSLAILSLAENEIRDLNEISFLASLTELEQLSIMNNPCVMATPSIPGFDYRPYIVSWCLNLRVLDGYVISQKESLKAEWLYSQGKGRAYRPGQHIQLVQYLATVCPLTSTLGLQTAEDAKLEKILSKQRFHQRQLMNQSQNEELSPLVPVETRASLIPEHSSPVQDCQISQESEPVIQVNSWVGINSNDDQLFAVKNNFPASVHTTRYSRNDLHLEDIQTDEDKLNCSLLSSESTFMPVASGLSPLSPTVELRLQGINLGLEDDGVADESVKGLESQVLDKEEEQPLWAANENSVQMMRSEINTEVNEKAGLLPCPEPTIISAILKDDNHSLTFFPESTEQKQSDIKKPENTQPENKETISQATSEKLPMILTQRSVALGQDKVALQKLNDAATKLQACWRGFYARNYNPQAKDVRYEIRLRRMQEHIVCLTDEIRRLRKERDEERIKKFVQEEAFRFLWNQVRSLQVWQQTVDQRLSSWHFEKVKRRLDLDIDGLQKENCPYVITSGITEQERQHLPEKRYPKGSGFVNKNKMLGTSSKESEELLKSKMLAFEEMRKRLEEQHAQQLSLLIAEQEREQERLQKEIEEQEKMLKEKKAMTAEASELDINNAVELEWRKISDSSLLETMLSQADSLHTSNSNSSGFTNSAMQYSFVSANEAPFYLWGSSTSGLTKLSVTRPFGRAKTRWSQVFSLEIQAKFNKITAVAKGFLTRRLMQTDKLKQLRQTVKDTMEFIRSFQSEAPLKRGIVSAQDASLQERVLAQLRAALYGIHDIFFVMDAAERMSILHHDREVRKEKMLRQMDKMKSPRVALSAATQKSLDRKKYMKAAEMGMPNKKFLVKQNPSETRVLQPNQGQNAPVHRLLSRQGSICRKNPKKAAKCCDNLRRQHSLG
notes: CEP97, human, residues 1-650; Dimer by single-molecule fluorescence intensity; A linker between the two parts is not described; also called CP110-CEP97 fusion; CEP97^CP110 chimera; source: HEK293T, transfected; purified (StrepTactin) for the in vitro assays; in lysate for the co-immunoprecipitation; not shown: GFP, C-terminal, kept; twin-Strep-tag (SII), C-terminal, kept
- stoichiometry N [4]: 2
